Like-named read-outs stand apart in the source and are kept apart here. No end group written: not given here.
T1: GST-Abp1 SH3 domain (S. cerevisiae, UniProt P15891 532-592)
T1 chain: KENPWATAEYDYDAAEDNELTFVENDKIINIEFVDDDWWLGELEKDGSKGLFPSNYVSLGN

B1: RVS167 SH3 domain (protein)
chain: PGVETVTALYDYQAQAAGDLSFPAGAVIEIVQRTPDVNEWWTGRYNGQQGVFPGNYVQLNKN

What was measured:
Assay in all cases: SPR
YJR083C peptide = target: YJR083C peptide
YPR171 peptide = target: YPR171 peptide
YMR192 peptide = target: YMR192 peptide
GST-Abp1 SH3 domain [1] = target: T1, GST-Abp1 SH3 domain
RVS167 SH3 domain = target: B1
GST-Abp1 SH3 domain [2] = target: T1, GST-Abp1 SH3 domain

Binder | Kd (YJR083C peptide) | Kd (YPR171 peptide) | Kd (YMR192 peptide) | Kd (GST-Abp1 SH3 domain [1]) | Kd (RVS167 SH3 domain) | Kd (GST-Abp1 SH3 domain [2])
BOI2 SH3 domain (protein) GNFPMYIAINEYFKRMEDELDMKPGDKIKVITDDEEYKDGWYFGRNLRTNEEGLYPVVFTQKITV | > 100 µM | > 100 µM | > 100 µM |  |  | 
GKDKSRPPRPPPKP (also: bound to cellulose membrane (SPOT)) [Prk1 peptide(s) on the Abp1 SPOT membrane] |  |  |  | 22 µM | > 100 µM | 22 µM
SKDKKTKPTPPPKP (also: bound to cellulose membrane (SPOT)) [Ark1 peptide(s) on the Abp1 SPOT membrane] |  |  |  | 24 µM | > 100 µM | 24 µM
YFR024C SH3 domain (protein) TSSPKAVALYSFAGEESGDLPFRKGDVITILKKSDSQNDWWTGRVNGREGIFPANYVELV |  | 4.8 µM |  |  |  | 
B1 |  | 16 µM |  |  |  | 
RPKRRAPPPVPKKP (also: bound to cellulose SPOT membrane) [Yir003w peptide(s) on the Abp1 SPOT membrane] |  |  |  | 0.92 µM | 13 µM | 0.9 µM
LSTKKPRPPVKSKP (also: bound to cellulose membrane) [Scp1 peptide(s) on the Abp1 SPOT membrane] |  |  |  | 14 µM |  | 14 µM
PPPRPKKP (also: bound to cellulose membrane) [Srv2 peptide(s) on the Abp1 SPOT membrane] |  |  |  | 75 µM |  | 75 µM

Reference: article PMC314469 (2004)
